Here are results for two molecules from patent publication US20240192215A1 (E AND S HEALTHCARE, published 2024).

The target in one experiment is T1, Peptide_004 (human).
T1 construct: 15-mer on microarray; not native form, recombinant insert region
T1 peptide: AADVHSQHHHHHHHH
Description: peptide microarray. As for the experimental part:
(§1) 5, 1, 0.2, 0.04, 0.008 and 0.0016 μg/mL serial dilutions were incubated on a single multi-well microarray slide at 30° C. for 1 hour. The slide includes 21 individual mini-arrays (one mini-array per sample dilution).
(§2) DyLight 650 was used as a label. False-positive binding to a peptide was evaluated by performing one additional control incubation in which only a secondary antibody was applied on the same microarray slide. Before performing each step, the microarrays were washed with a washing buffer.
(§3) MMC2 is the same as the average value of all three cases on a microarray except when the coefficient of variation (CV), which is the standard deviation divided by the average value, is larger than 0.5. In this case, the average of the two closest values (MC2) is assigned to MMC2. The thick black line in the heatmap indicates the culture of a control only using a secondary anti-mouse IgG antibody. The culture of individual antibody samples is indicated by a thin blue line. […] However, since Peptide_004 and Peptide_005 are not native forms, these peptides were excluded from an epitope candidate group.

Another experiment deals with T2, Peptide_005 (human).
T2 construct: 15-mer on microarray; not native form, recombinant insert region
T2 peptide: ADVHSQHHHHHHHHV
The experiment can be described thus: peptide microarray. The method, then:
as §1, §2, §3

The target in another experiment is T3, Peptide_012 (human).
T3 construct: 15-mer on microarray; not native form, includes recombinant insert region
T3 peptide: HHHHHHHVKQIESKT
The experiment can be described thus: peptide microarray. As for the experimental part:
as §1, §2, §3

The target of experiment [1] is T4, Peptide_018 (human).
T4 construct: 15-mer on microarray; not native form, includes recombinant insert region; also called HVKQIESKTAFQEAL
T4 peptide: HVKQIESKTAFQEAL
Description: peptide microarray. As for the experimental part:
as §1, §2, §3

The target in another experiment is T5, Peptide_015 (human).
T5 construct: 15-mer on microarray; not native form, includes recombinant insert region
T5 peptide: HHHHVKQIESKTAFQ
Description: peptide microarray, 5 ug/mL. As for the experimental part:
as §1, §2

The target of experiment [2] is T4, Peptide_018. Description: peptide microarray, 5 ug/mL. As for the experimental part: as §1, §2
Another experiment addresses T6, Peptide_019 (human).
T6 construct: 15-mer of hTrx1 on microarray
T6 peptide: VKQIESKTAFQEALD
The experiment can be described thus: peptide microarray, 5 ug/mL. As for the experimental part: as §1, §2

For the next experiment, the target named is T7, Peptide_023 (human).
T7 construct: 15-mer of hTrx1 on microarray
T7 peptide: ESKTAFQEALDAAGD
Description: peptide microarray, 5 ug/mL. The method, then:
as §1, §2

The next experiment has as its target T8, Peptide_024 (human).
T8 construct: 15-mer of hTrx1 on microarray
T8 peptide: SKTAFQEALDAAGDK
Description: peptide microarray, 5 ug/mL. The method, then: as §1, §2

For the next experiment, the target named is T9, Peptide_025 (human).
T9 construct: 15-mer of hTrx1 on microarray
T9 peptide: KTAFQEALDAAGDKL
The experiment can be described thus: peptide microarray, 5 ug/mL. The method, then:
as §1, §2

Another experiment deals with T10, Peptide_085 (human).
T10 construct: 15-mer of hTrx1 on microarray
T10 peptide: ECEVKCMPTFQFFKK
Description: peptide microarray, 5 ug/mL. As for the experimental part: as §1, §2

A further experiment deals with T11, Peptide_086 (human).
T11 construct: 15-mer of hTrx1 on microarray
T11 peptide: CEVKCMPTFQFFKKG
The experiment can be described thus: peptide microarray, 5 ug/mL. The method, then: as §1, §2

A further experiment has as its target T12, Peptide_093 (human).
T12 construct: 15-mer of hTrx1 on microarray
T12 peptide: TFQFFKKGQKVGEFS
The experiment can be described thus: peptide microarray, 5 ug/mL. As for the experimental part:
as §1, §2

For another experiment, the target named is T13, Peptide_094 (human).
T13 construct: 15-mer of hTrx1 on microarray
T13 peptide: FQFFKKGQKVGEFSG
The experiment can be described thus: peptide microarray, 5 ug/mL. As for the experimental part: as §1, §2

The target of experiment [3] is T14, human thioredoxin-1 (Trx1) (human, UniProt P10599 1-105).
T14 construct: also called hTrx1; hTRX1
T14 sequence (looked up): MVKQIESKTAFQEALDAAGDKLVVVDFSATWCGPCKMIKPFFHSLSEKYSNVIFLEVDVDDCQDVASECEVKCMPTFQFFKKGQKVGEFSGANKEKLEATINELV
Description: one site - total fit (Prism) of the ELISA of panel (a); the cell has no unit, the concentrations of panel (a) are in nM; paragraph 183 prints it rounded as 1.3x10^-10 [b]. The method, then: 100 μl of a coating buffer and 100 ng of Trx1 were mixed and dispensed to each well, and then reacted at 4° C. for 16 hours or more. After the reaction solution was removed, 200 μl of PBSA was dispensed to each well and reacted at 37° C. for 120 minutes. […] After the reaction solution was removed, washing was performed by dispensing 200 μl of a washing buffer to each well. The above-described process was performed two times.
After the reaction solution was removed, washing was performed by dispensing 200 μl of a washing buffer to each well. The above-described process was performed three times.
On the technique in general: An ELISA detects its analyte on a solid surface through an enzyme-linked reagent.

B1: monoclonal antibody B266-1 (antibody, human IgG1)
light: QIVLTQSPAIMSASPGEKVTMTCSASSRISYMYWYQQKPGTSPKRWIYDTSKLASGVPARFSGSGSGTSYSLTISTMEAEDAATYYCHQRSSYPTFGAGTKLELKSVAAPSVFIFPPSDEQLKSGTASVVCLLNNFYPREAKVQWKVDNALQSGNSQESVTEQDSKDSTYSLSSTLTLSKADYEKHKVYACEVTHQGLSSPVTKSFNRGEC
heavy: not shown
notes: B266 with the Fc part changed to human IgG1; also called B266-1 (Trx1-hIgG1); B266-1 (hTrx1-hIgG1)
Turning to B1, the “signal, fold of the average background level” value with Peptide_004 and in the experiment with Peptide_005 was about 8 fold throughout.

B2: monoclonal antibody B264 (antibody, mouse IgG1, kappa, V domains shown)
VH: QVQLQQSGAELARPGASVKMSCKASGYTFTSYTMHWVKQRPGQGLEWIGYINPTSDYTNYNQKFKDKATLTADKSSSTAYMQLSSLTSEDSAVYFCASEGGFLYYFDYWGQGTTLTVSS
VL: DVLMTQTPLSLPVSLGDQASISCRSSQSIVHSNGNTYLEWYLQKPGQSPKLLIYKVSNRFSGVPDRFSGSGSGTDFTLKISRVEAEDLGVYYCFQGSHVPYTFGGGTKLEIKR
notes: also called AB264; B264 (Trx1-mIgG1)
As usually defined, the Kd is the constant that tells how readily two partners part at equilibrium. The low end stands for a tighter complex, the high end for a looser complex. As for B2, the “signal, fold of the average background level” value with Peptide_012 and with Peptide_018 [1] was about 7 fold each time. For the same molecule, the “signal (blank-control = 1)” value with Peptide_015 is 5.96; in the experiment with Peptide_018 [2] it was 6.15; with Peptide_019, 1.98; with Peptide_023 it was 1.26; with Peptide_024, 6.09; with Peptide_025 it was 6.49. Besides, the “signal (blank-control = 1)” value turned out to be 3.87 with Peptide_085, 1.9 in the experiment with Peptide_086, 6.18 with Peptide_093 and 4.13 with Peptide_094. Besides, binding in experiment [3] was characterised by a dissociation constant (Kd) of 133 pM.
